Experiment: yeast display, Sf9 membrane polyspecificity reagent, FACS + sequencing; frameworks hold sequencing errors
Summary of the method: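 Using colony PCR, genes from sorted yeast display clones were amplified, then sequenced on MiSeq at 2 × 250 and filtered by CDR length. The clones had been stained with 10% biotinylated, detergent-solubilized Sf9 membrane reagent for 1 hour at 4 °C and sorted by FACS into low and high (top ~1%) gates on anti-HA and streptavidin fluorescence. Polyreactivity labels come from the gate of origin.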

QVQLVESGGGLDQAGGSLRLSCAASGSTFPYYAMGWYRQAPGKERELVARISYRGGRTYYADSVKGRFTISRDNAKNTVYLQMNSLKAEDTAVYYCAADRWVYYHSTRYDYWGQGTQVTVSS
polyreactivity (PSR sort gate): high polyreactivity

QVQLVESGGGLVQAGGSLRLSCADSGSTIFGNAMGWYRQAPGKERELVAAISYSGDSTYYADSVKGRFTISRDNAMNTVYLQMNSLKPEDTAVYYCAAGFVIKYDFWGQGTQVTVSS
polyreactivity (PSR sort gate): low polyreactivity

QVQIEESGGGLVQAGGSLRLSCAASGRIFGSYTMGWSRQAPRKERELVAGISRRGGSTYYADSVKGRFTISRDNAKYTVYLQMNSLTTEDTAVYYCNTLRTNLFFTPLGFDYWGQGTQVTVSS
polyreactivity (PSR sort gate): high polyreactivity

QVQLVESGGGLVQAGGSLRLSCAASGFIFRGYGMGWYRQAPGKERELVASITTGGRTNYADSVKGRFTISRDNAKNTVYVQMNSLKPEDTAVYYCAATYYLRLRRPYWQGFNYWGQGTQVTVSS
polyreactivity (PSR sort gate): high polyreactivity

QVQLVESGGGLFQAGGSLRLSCAASGRTFEINAMGWYRQAPGKERELVARISWSGGRTYYADSVKGRFTISRDNAKNTVYLQMNSLKPEDTAVYYCAAVLYSGGNYDSWGQGTQVTGSS
polyreactivity (PSR sort gate): high polyreactivity

QVQLVESGGGLVQAGGSLRLSCAASGRTFNTNAMGWYRQAPGKERELVAAITRSGDSTYYADSVKGRFTISRDNAKNTVYLQMNSLKPEDTAVYYCAAYSRTLYPDRYYWGHGTQVTVSS
polyreactivity (PSR sort gate): high polyreactivity

QVQLVESGGGLVQAGGRLRLTCAASARTIVLNPMGWYRQAPGKERELVAAISSGGSTNYADSVKGRFTISRDNAKNTVYLQMNSLNPEDTAVYYCAGQDVNLYSAYYYWGQGTQVTVSS
polyreactivity (PSR sort gate): low polyreactivity

QVQLVESGGGLVQAGGSLRLSCAATGSTIPYYAMGWYRQAPGKERELVARITSGDRTYYADSVKGRFTISRDNAKNTVYLQMNSLKPEDTADYYCNAQVHYYSWYGYWGQGTQVTVSS
polyreactivity (PSR sort gate): high polyreactivity

QVQLVESGGGLVQAGGSLRLSCAASGSTFVDNAMGWYRQAPGKERELVAAINSTDITNYADSVKGRFTISRDNAKNTVYLQMNSLKPEDTAVYYCAKDLLKWRKYQWYYYWGQGTQVTVSS
polyreactivity (PSR sort gate): low polyreactivity

QVQLVESGGGLVQAGGSLRLTCADTGNIFVRNAMGWYRQAPGKERELVADISTGADTNYADSVKGRFTISRDNAKNTFYLQKNSLKPEDTAVYYCAAAAEVGEIGYWPMVYWGQVTQVTVSS
polyreactivity (PSR sort gate): high polyreactivity

QVQLVESGGGLVPARGSLRLSCAASGSTFSDNAMGWYRQAPGKERELVAAINWSVGSTYYADSVKGRFTISRDNAKNTVYLQMNRRKPEDTAVYYCAGGYSLYESLVIFDYWGQGTQVTVSS
polyreactivity (PSR sort gate): low polyreactivity

QVQLVESGGGLVQAGGSLRLSCAASGSNFVTNAMGWYRQAPGKERELVAAISVSGGSTYYADSVKGRFTFSRDNAKNTVYLQMNSLKPEDTEVYYCAADGFIGCRHIYEYWGQGTQVTVSS
polyreactivity (PSR sort gate): low polyreactivity

QVQLVESGGGLVQAGGSLRLSCAASGSTFPTYAMGWYRQAPGKERELVAAISFSGARTYYADSVKGRFTISRDNAKNTVYLQMNSLKPEDTAVYYCAKASSYSRRYEYWGQGTQVTVSS
polyreactivity (PSR sort gate): high polyreactivity

QVQLQESGGGLVQAGGSLRLSCAASGSNSILQSMGWYRQAPRKERELVAGINWGATTYYADSVKGRLTTSRDYAINTVYLQMNSLKPEATAVYYCAVPTYYTYPLLYWGQGTQVTVSS
polyreactivity (PSR sort gate): low polyreactivity

QVQLVESGGGLVQAGGSLRLSCAASGITFHKYAMGWYRQAPGKESELVAAISSGGGTYYADSVKGRFTISRDNAKNTVYLQMNSLKPEDTAVYYCNADIEWLWVRYDYWGQGTQVTVSS
polyreactivity (PSR sort gate): high polyreactivity

QVQLVESGGGLVQAGGSLRVSCAASGRTFSGYTMGWYRQAPGKERELVATIRDRGGSTYYADSVKGRFTISRDNAKNTVYLQMNSLTPEDTAVYYCAARRGRRYYYWGQATQVTVSS
polyreactivity (PSR sort gate): high polyreactivity

QVQLVESGGGLVQAGGSLRLSCAASGSTFTYNAMGWYRQAPGKERELVAAIDRSVSTNYADSVKGRFTISRDNAKNTVYLQMNSLKPEDTAVYYCNARHPTDDIVIYDYWGQGTQVTVSS
polyreactivity (PSR sort gate): low polyreactivity

QVQLVESGGGLVQAGGSLRLSCAASGFTFSRYVMGWYRQAPGKERELVATISSDGDDTYYADSVKGRFTISRDNAKNTVYLQMNSLKPEDTAVYYCAAESYTYYADYGYGYWGQGTQVTVSS
polyreactivity (PSR sort gate): high polyreactivity

QVQLVESGGGLVQPGGSLRLSCAASGSTLRRNAMGWYRQATRIERELVSAITGSRGSTYYADSVKGRFTISLDNAKNTVYLQMNCLKPEDTAVYYCAALYYYHLLPSRYYRFVYWGQGTQVTVSS
polyreactivity (PSR sort gate): high polyreactivity

QVQLVESGGGLVQAGGSLRLSCAASGLTFSYYAMGWYRQAPGKERELVAAIDYSGGTTYADSVKGRFTISRDNAKNTVYLQMNSLKPEDTAVYYCAREWYQYSPYHRFDYWGQGTQVTVSS
polyreactivity (PSR sort gate): high polyreactivity

QVQLVESGGGLVQAGGSLRLSCAASGSIFVHYAMGWYIQEPGKERELVARISWRGNTYYADSVKGRFTISRDNAKNTVYLQMNSLKPEDTAVYYCAKDVRRSLVNWDVVYPHGYWGQGTQVTVSS
polyreactivity (PSR sort gate): low polyreactivity

QVQLVESGGGLVQAGGSLRLSCAASGSIFAGYAMGWYRKAPGKERELVAVISSTGSTYYADSVKGRFTISRDNAKNTVYLQMNSLKTEDTAVYYCNAYRYWSPGYDYWGQGTQVTVSS
polyreactivity (PSR sort gate): low polyreactivity

QVHLVESVGGLVQAGGSLRLSCAASGRTFHYYAMGWYRQAPGKERELVAGITGGGSTYYADSVKGRFTISRDNAKNTVYLQMNSLKPEDTAVYYCAADRSYYGYGYWGQGTQVTVSS
polyreactivity (PSR sort gate): low polyreactivity

QVQLVESGGGLVQAGGSLRLSCAASGSIFRYNAMGWYRQAPGKERELVAGITWGGGRTYYADSVKGRFTISRDNAKNTVYLQMNSLKPEDTAVYYCNAVRKYKGDSSFDYWGQGTQVTVSS
polyreactivity (PSR sort gate): high polyreactivity

QVQLVESGGGLVQAGGSLRLSCAACGSIFNYYTMGWYRTAPGKERELVADISWSGGSTYYADSVKGRFTISRDNAKNTVYLQMNSLKPEETAVYYCAADFGLFPYVGTGYYYWGQGTQVTVSS
polyreactivity (PSR sort gate): low polyreactivity

QVQLVESGGGLVQAGGSLRLSCAASGSIFIYYAMGWYRQAPGKERELVAAISYSDGDTYYADSVKGRFTISRDNAKNTVYLQMNSLKPEDTAVYYCAAEVPQYYDVGWEDYCGQGTQVTVSS
polyreactivity (PSR sort gate): high polyreactivity

QVQLVESGGGLVKAGGSLRLSCCASGFTFTGYAMGWYRQAPGKEWELVAAITRGGGSTYYADSVKGRFTISRDNAKNTVYLQMNSLKREDTAVYYCAAQGSRLIRISSPYYGHDYWGQGTQVTVSS
polyreactivity (PSR sort gate): low polyreactivity

QVQLVDSGGGLVQAGGRLRLSCAASGSTFGHNAMGWYRQAPGKERQLLAAISRSGGITYYADSVKGRFTISRDNAKNTVYLQLNSLKPEDTAVYYCAADAWFSLRYAPRSYAYGYWGQGTQVTVSS
polyreactivity (PSR sort gate): low polyreactivity

QVQLVESGGGLVQAGGSLRLSCAASGYTFTIYAMGWYRQAPGKERELVASISIDGSTYYADSVKGRFTISRDNAKNTVYLQMNSLKREDTAVYYCAADYYYYTPGFDYWGQGTQVTVSS
polyreactivity (PSR sort gate): low polyreactivity

QVQLVESGGGLVQAGGSLRLSCAAYGRTIRRNAMGWYRQAPGKERELVAGISGSGTITYADSVKGRFTIARDNAKNTVYLQMNSLKPEDTAVYYCAARRKSFYTFYYWGQGTQVTVSS
polyreactivity (PSR sort gate): high polyreactivity

QVHLVESGGGLVQARGSLRLSCAASGSIFRNYAMGWYRQAPGKERELLATISGRGGRTYYADSVKGRFTISRDNAKNTVYLQMNSLKPEDTAVYYCAARGTLGKYSTATVYWGKGTQVTVSS
polyreactivity (PSR sort gate): high polyreactivity

QVQLVESGGGLVQAGGSLRLSCAASGGTFIANAMGWYRPAPGKERELVAAITSRGGNTYYADSVKGRFTISRDNAKNTVYLQMNSLKPEDTSVYYCAARNDKRRQYYVGQSAFDFWGQGTQVTVSS
polyreactivity (PSR sort gate): low polyreactivity

QVQLVESGGGLVQAGGSLRLSCAASGSTFRRNAMGGYRQAPGKERELVAAITSTDSTYYADSVKGRFTISRDNAKNSVYLQMNSLKPEDTAVYYCAKGYWWGGEMGYWGQGTQVTVSS
polyreactivity (PSR sort gate): low polyreactivity

QVQLVESGGGLVQAGGSLRLSCAASGGTFMYYDMGWYRQAPGKERELVAAISSGSSTYYADSVKGRFTISRDNAKNTVYLQMNRLKQEDTAVYYCAKLHYAHYWGQGTQVTVSS
polyreactivity (PSR sort gate): low polyreactivity

QVQLVESGGGLVQAGGSLRLSCAASGGILSYNTMGWYRQAPGKERELVAAITSSGGRTYYADSVKGRFTISRDNAKNTVYLQMNSLKPEDTAVYYCNTVYYFTYYYWGQGTQVTVSS
polyreactivity (PSR sort gate): high polyreactivity

QVQLVESGGGLVQAGGSLRLSCAASGFTFRAYAMGWYRQAPGKERELVAAINISGGSTYYADSVKGRFTISRDNAKNTVYLQMNSLKPEDTAVYYCAADWPEDWYTEYGYWGQGTQVTVSS
polyreactivity (PSR sort gate): low polyreactivity

QVQLVESGGGLVQAGGSLRLSCAASGLTFQGYAMGWYRQAPGKERELVAAISSSGDITYYADSVKGRFTISRDNAKNTVYLQMNSLKPEDTAVYYCAAEAEYYVYGTYDYWGQGTQVTVSS
polyreactivity (PSR sort gate): high polyreactivity

QVQLVESGGGLFHAGGSLRLSCAASGSTFGGNDMGWSIQAPGKERELVASISDGGRTNYADSVKGRFTISRDNAKNTVYLQMNSLKPEDTAVYYCAADYAPVAFDYWGQGTQVTVSS
polyreactivity (PSR sort gate): low polyreactivity

QVQLQDSGGGLVQAGGSLRLSCAASGTISYRYRMGWYRQAPRKELELVAGISFGSITYYADSVKGRFTISRDNAKNTVYLQMNSLKPEDIAVYYCAVYQKSYRFFPYWGQGTQVTVSS
polyreactivity (PSR sort gate): high polyreactivity

QVQLVESGGGLVQAGGSLRLSCADSGRIFRDYAMGWYRQAPGKERELVAAISRSGGSTYYADSVKGRFTISRDNAKNTVYLQVNSLKPEDTAVFYCAAKYYYGGNGYWGQGTQVTVSS
polyreactivity (PSR sort gate): low polyreactivity

QVQLVESGGGLVQAGGSLRLSCSASGGTFEFYTMGWYRQAPGKERELVAAISWSGSSTYYADSVKGRFTISRDNAKNTVYLQMNSLKPEDTAVYYCAAYPRPYIGYTDGYVWYEFDYWGQGTQVTVSS
polyreactivity (PSR sort gate): low polyreactivity

QVQLVESGGGLVQAGGSLRLSCAASGSIFHGYAMGWYRQAHGKETELVAVITRGGNTYYADSVKGRFTISRDNAKNTVYLQMNSLKPEDTAVYYCNKAVDRGRRAYGYWGQGTQVTVSS
polyreactivity (PSR sort gate): high polyreactivity

QVQLVESGGGLVQAGGSLRLSCAASGSIFRGYAMGWYRQAPGKERELVAAITSRGGSTYYADSVKGRFTISRDNAKNTVYLQMNSLKPEDTAVYYCNKRVYYPWGQGTQVTVSS
polyreactivity (PSR sort gate): high polyreactivity

Source: the nanobody polyreactivity screen of Harvey et al. (2022)
